Experimental data reported in patent publication US20210145976A1.

Target: human serum albumin (human) (UniProt P02768)
Assay: screening ELISA

human serum albumin (human), sequence (P02768 25-609 limits assumed): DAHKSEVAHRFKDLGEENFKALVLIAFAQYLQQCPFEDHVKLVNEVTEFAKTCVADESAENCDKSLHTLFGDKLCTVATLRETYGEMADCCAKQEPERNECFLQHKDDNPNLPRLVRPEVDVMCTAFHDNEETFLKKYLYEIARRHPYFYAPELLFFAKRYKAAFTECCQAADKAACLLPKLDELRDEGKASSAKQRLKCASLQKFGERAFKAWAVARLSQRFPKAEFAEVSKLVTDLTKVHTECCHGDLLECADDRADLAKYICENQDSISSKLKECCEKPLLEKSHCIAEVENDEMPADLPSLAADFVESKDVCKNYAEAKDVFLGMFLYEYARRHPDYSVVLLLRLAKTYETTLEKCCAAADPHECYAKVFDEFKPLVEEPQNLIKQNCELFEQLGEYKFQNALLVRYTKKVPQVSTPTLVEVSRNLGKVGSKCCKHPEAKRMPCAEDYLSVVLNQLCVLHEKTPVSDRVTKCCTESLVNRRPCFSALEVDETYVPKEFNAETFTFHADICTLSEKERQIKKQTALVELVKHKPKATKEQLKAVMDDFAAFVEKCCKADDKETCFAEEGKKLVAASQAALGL

Row | Binder | HSA
1 | SEQ ID NO 192 (designed binder) MLPAPKNLVVSRVTEDSARLSWTALDAAFDSFFIGYLEPQPPGEAIVLTVPGSERSYDLTGLKPGTEYNVTIQGVKGGFPSMPLSAIFTT | 4100
2 | SEQ ID NO 186 (designed binder) MLPAPKNLVVSRVTEDSARLSWTAPDAAFDSFFIGYLESAEAIVLTVPGSERSYDLTGLKPGTEYLVTIQGVKGGIASDPLSAIFTT | 1850
3 | SEQ ID NO 191 (designed binder) MLPAPENLVVSRVTEDSARLSWTAPDAAFDSFEITYEENWRRGEAIVLTVPGSERSYDLTGPKPGTEYIVIIQGVKGGAESWPLSAIFTT | 34000
4 | SEQ ID NO 195 (designed binder) MLPAPKNLVVSRVTEDSARLSWTAPDAAFDSFPIEYDEIPFWGEAIVLTVPGSERSYDLTGLKPGTEYRVWIHGVKGGNSSWPLSAIFTT | 90200
5 | SEQ ID NO 45 (designed binder) MLPAPKNLVVSRVTEDSARLSWTAPDAAFDSFAIYYLESYPEGEAIVLTVPGSERSYDLTGLKPGTEYWVGIDGVKGGTWSSPLSAIFTT | 2880
6 | SEQ ID NO 189 (designed binder) MLPAPKNLVVSRVTEDSARLSWTAPDAAFDSFHEWVYFGEAIVLTVPGSERSYDLTGLKPGTEYFVDIWGVKGGTVSKPLSAIFTT | 67500
7 | SEQ ID NO 183 (designed binder) MLPAPKNLVVSRVTEDSARLSWTAPDAAFDSFLIPYAETSPSGEAIVLTVPGSERSYDLTGLKPGTEYSVLIHGVKGGRPSNPLVAAFTT | 10700
8 | SEQ ID NO 188 (designed binder) MLPAPKNLVVSRVTEDSARLSWTAPDAAFDSFLIPYAETSPSGEAIVLTVPGSERSYDLTGLKPGTEYSVLIHGVKGGKLSLPLSAIFTT | 3350
9 | SEQ ID NO 187 (designed binder) MLPAPKNLVVSRVTEDSARLSWTAPDAAFDSFVIEYFEFVGYGEAIVLTVPGSERSYDLTGLKPGTEYSVGIYGVKGGKLSPPLSAIFTT | 7250
10 | SEQ ID NO 46 (designed binder) MLPAPKNLVVSRVTEDSARLSWTAPDAAFDSFTIEYFEFTGTGEAIVLTVPGSERSYDLTGLKPGTEYYVSIYGVKGGLLSAPLSAIFTT | 3040
11 | SEQ ID NO 48 (designed binder) MLPAPKNLVVSRVTEDSARLSWTAPDAAFDSFVIEYFEQFNLGEAIVLTVPGSERSYDLTGLKPGTEYWVGIYGVKGGWLSHPLSAIFTT | 2800
12 | SEQ ID NO 196 (designed binder) MLPAPKNLVVSRVTEDSARLSWTAPDAAFDSFNIHYVEWWVLGEAIVLTVPGSERSYDLTGLKPGTEYPVYIYGVKGGPKSIPLSAIFTT | 34600
13 | SEQ ID NO 190 (designed binder) MLPAPKNLVVSRVTEDSARLSWTAPDAAFDSFFIGYPEYPATGEAITLFVPGSERSYDLTGLKPGTEYNVVIQGVKGGRPSNPLVVAFTT | 4900
14 | SEQ ID NO 185 (designed binder) MLPAPKNLVVSRVTEDSARLSWTAPDAAFDSFEIDYDELAIYGEAIVLTVPGSERSYDLTGLKPGTEYGVMIIGVKGGLPSDPLSAIFTT | 9950
15 | SEQ ID NO 194 (designed binder) MLPAPKNLVVSRVTEDSARLSWTAPDAAFDSFEIDYDELAIYGEAIVLTVPGSERSYDLTGLKPGTEYRVFIYGVKGGWTSWPLSTIFTT | 17800
16 | SEQ ID NO 193 (designed binder) MLPAPKNLVVSRVTEDSARLSWTAPDAAFDSFTIWYAEAVGNGEAIVLTVPGSERSYDLTGLKPGTEYWVDIWGVKGGEFSSPLSAIFTT | 2500
17 | SEQ ID NO 197 (designed binder) MLPAPKNLVVSRVTEDSARLSWTAPDAAFDSFKIDYLEINDNGEAIVLTVPGSERSYDLTGLKPGTEYPVYIWGVKGGYPSSPLSAIFTT | 18900
18 | SEQ ID NO 47 (designed binder) MLPAPKNLVVSRVTEDSARLSWTAPDAAFDSFTIWYAEALGDGEAIVLTVPGSERSYDLTGLKPGTEYFVDIYGVKGGFWSLPLSAIFTT | 5200

The remaining lines, values ahead:

Row | HSA | Binder
19 | 3650 | SEQ ID NO 221 (designed binder) MLPAPKNLVVSRVTEDSARLSWTAPDAAFDSFHISYQEVVAEGEAIYLRVPGSERSYDLTGLKPGTEYYVLIHGVKGGYESKPLDASFTT
20 | 3000 | SEQ ID NO 211 (designed binder) MLPAPKNLVVSRVTEDSARLSWTAPDAAFDSFWINYYEAQPDGEAIVLTVPGSERSYDLTGLKPGTEYDVEIAGVKGGTASLPLSAIFTT
21 | 14400 | SEQ ID NO 199 (designed binder) MLPAPKNLVVSRVTEDSARLSWTAPDAAFDSFGIRYFEWWDLGEAIVLTVPGSERSYDPTGLKPGTEYNVTIQGVKGGFPSMPLSAIFTT
22 | 25600 | SEQ ID NO 207 (designed binder) MLPAPKNLVVSRVTEDSARLSWTAPDAAFDSFFIGYLEPQPPGEAIVLTVPGSERSYDLTGLKPGTEYNVTIQGVKGGTPSEPLSAISTT
23 | 3050 | SEQ ID NO 198 (designed binder) MLPAPKNLVVSRVTEDSARLSWTAPDAAFDSFLIAYNEDRKFGEAIVLTVPGSERSYDLTGLKPGTEYDVWIEGVKGGSLSFPLSAIFTT
24 | 2200 | SEQ ID NO 214 (designed binder) MLPAPKNLVVSRVTEDSARLSWTAPDAAFDSFAIPYGERQELGEAIVLTVPGSERSYDLTGLKPGTEYFVVIQGVKGGQPSYPLSAIFTT
25 | 2650 | SEQ ID NO 206 (designed binder) MLPAPKNLVVSRVTEDSARLSWTAPDAAFDSFDIEYDELWKNGEAIVLTVPGSERSYDLTGLKPGTEYRVFIYGVKGGYGSFPLSAIFTT
26 | 24600 | SEQ ID NO 204 (designed binder) MLPAPKNLVVSRVTEDSARLPWTAPDAAFDSFWISYYESVGYGEAIVLTVPGSERSYDLTGLKPGTEYYVDISGVKGGVYSLPLSAIFTT
27 | 11800 | SEQ ID NO 217 (designed binder) MLPAPKNLVVSRVTEDSARLSWTAPDAAFDSFIIEYWEWYFAGEAIVLTVPGSERSYDLTGLKPGTEYTVWITGVKGGTWSEPLSAIFTT
28 | 2250 | SEQ ID NO 212 (designed binder) MLPAPKNLVVSRVTEDSARLSWTAPDAAFDSFIIEYWEQIGVGEAIVLTVPGSERSYDLTGLKPGTEYWVGIYGVKGGLLSSPLSAIFTT
29 | 1750 | SEQ ID NO 215 (designed binder) MLPAPKNLVVSRVTEDSARLSWTAPDAAFDSFLIPYAETSPTGEAIVLTVPGSERSYDLTGLKPGTEYSVLIHGVKGGYPSSPLSAIFTT
30 | 21800 | SEQ ID NO 216 (designed binder) MLPAPKNLVVSRVTEDSARLSWTAPDAAFDSFPIAYAEPTPSGEAIVLTVPGSERSYDLTGLKPGTEYSVLIHGVKGGGLSLPLSAIFTT
31 | 2100 | SEQ ID NO 200 (designed binder) MLPAPKNLVVSRVTEDSARLSWTAPDAAFDSFYIEYYEWMHTGEAIVLTVPGSERSYDLTGLKPGTEYSVYIYGVKGGYPSSPLSAIFTT
32 | 3300 | SEQ ID NO 203 (designed binder) MLPAPKNLVVSRVTEDSARLSWTAPDAALDSFRIEYYESYGHGEAIVLTVPGSERSYDLTGLKPGTEYDVGIYGVKGGYYSRPLSAIFTT
33 | 9400 | SEQ ID NO 220 (designed binder) MLPAPKNLVVSRVTEDSARLSWTAPDAAFDSFHIIYEEDGTEGEAIYLRVPGSERSYDLTGLKPGTEYEVDIEGVKGGVLSWPLFAEFTT
34 | 11400 | SEQ ID NO 201 (designed binder) MLPAPKNLVVSRVTEDSARLSWTAPDAAFDSFNIDYWETWVIGEAIVLTVPGSERSYDLTGLKPGTEYEVIIPGVKGGTISPPLSAIFTT
35 | 46700 | SEQ ID NO 208 (designed binder) MLPAPKNLVVSRVTEDSARLSWTAPDAAFDSFGIVYREPYVGGEAIVLTVPGSERSYDLTGLKPGTEYGVPIPGVKGGYDSGPLSAIFTT
36 | 9800 | SEQ ID NO 213 (designed binder) MLPAPKNLVVSRVTEDSARLSWTAPDAAFDSFWIYYWEIERAGEAIRLDVPGSERSYDLTGLKPGTEYRVDIWGVKGGPTSGPLRATFTT
37 | 2250 | SEQ ID NO 210 (designed binder) MLPAPKNLVVSRVTEDSARLSWTAPDAAFDSFSIVYGERFVNGEAIVLTVPGSERSYDLTGLKPGTEYHVYIDGVKGGDLSWPLSAIFTT
38 | 2800 | SEQ ID NO 202 (designed binder) MLPAPKNLVVSRVTEDSARLSWTAPDAAFDSFYIDYLELTYSGEAIVLTVPGSERSYDLTGLKPGTEYYVYIYGVKGGYPSSPLSAIFTT
39 | 2600 | SEQ ID NO 219 (designed binder) MLPAPKNLVVSRVTEDSARLSWTAPDAAFDSFHIDYLELTYAGEAIVLTVPGSERSYDLTGLKPGTEYYVTIYGVKGGYPSSPLSAIFTT
40 | 3350 | SEQ ID NO 205 (designed binder) MLPAPKNLVVSRVTEDSARLSWTAPDAAFDSFDIDYDEPAWNGEAIVLTVPGSERSYDLTGLKPGTEYRVFIYGVKGGNTSWPLSAIFTT
41 | 33800 | SEQ ID NO 218 (designed binder) MLPAPKNLVVSRVTEDSARLSWTAPDAAFDSFTILYYEMVGEGEAIVLTVPGSERSYDLTGPKPGTEYWVDIYGVKGGGWSRPLSAIFTT
